Experimental data published in paper PMC13067816, “Alphaviral Capsid Proteins Inhibit Stress Granule Assembly via Competitive RNA Binding With G3BP1”.

B1: FAM-AHNAK probe (ssRNA)
RNA: AUGCAAAGGGCUUGGACUUGGGUGGCAGAG
B2: FAM-GAPDH probe (ssRNA)
RNA: UUUGUCAAGCUCAUUUCCUGGUAUGACAAC
B3: FAM-SFV gRNA probe1 (ssRNA)
RNA: GGUUGACGGGUCGGAUAGUUGCUU
B4: FAM-SFV gRNA probe2 (ssRNA)
RNA: GCGUCGUGUGAGCCCCCGAAAGACCACAUA

Target: SFV capsid (nucleocapsid N) (Semliki Forest virus (SFV4, …, UniProt P03315 1-267))
Experiment: fluorescence polarization; 20 nM probe, 0-8000 nM protein; FP: 50 mM Tris-HCl pH 7.4, 150 mM NaCl, 20 nM FAM-RNA, 15 min, room temperature

| Binder | binding result |
| --- | --- |
| B1 | binds |
| B2 | binds |
| B3 | binds |
| B4 | binds |
